The source of these data is the supplement of paper PMC9732359.

The nature of this data set: protein stability index of a GFP-peptide fusion (yeast GPS) (PSI 1-4); higher = more stable; sorted into four equal gates, so the index is relative within each strain. The method, boiled down: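 Plasmids in a pooled yeast library fused tiled 17-residue yeast protein peptides downstream of GFP and also expressed Cherry. Mid-log cultures grown without leucine were sorted into four equal gates by GFP/Cherry fluorescence ratio. Each gate's plasmids were PCR-amplified and Illumina-sequenced, and reads were matched to strains by barcodes. The protein stability index is derived by multiplying each gate's read frequency by its gate number and summing the results.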

± gives the uncertainty stated by the source.

KAPEQFIENFLTNDTFE [YML103C/NUP188]: the protein stability index amounted to 2.84 ± 0.12 (doa10∆), 3.16 ± 0.1 (pdr5∆), 2.93 ± 0.12 (san1∆) and 3.02 ± 0.075 (ubr1∆).
Turning to NVLDYFAESPFFDKTSN [MED6], the protein stability index is, setting by setting: (doa10∆) 3.46 ± 0.068; (pdr5∆) 2.99 ± 0.085; (san1∆) 2.87 ± 0.062; (ubr1∆) 3.04 ± 0.051.
Take VLGFLQLFHNLISIHSR [YJL039C/NUP192]: the protein stability index was 2.67 ± 0.068 (doa10∆), 2.89 ± 0.059 (pdr5∆), 2.85 ± 0.056 (san1∆) and 2.98 ± 0.048 (ubr1∆).
On the same counts, the results for KLRRECSNPTCGAGVFL [RPS31] are 1.78 ± 0.048, 2.44 ± 0.065, 2.11 ± 0.07 and 1.86 ± 0.038.
With EGIKETQAKRIFLQQFL [SWI1], the protein stability index reads like this: (doa10∆) 2.37 ± 0.12; (pdr5∆) 2.75 ± 0.14; (san1∆) 2.74 ± 0.086; (ubr1∆) 2.26 ± 0.066.
On the same counts, the results for ESLTFNEFQLQWGKYQT [SWI1] are 2.86 ± 0.049, 2.93 ± 0.047, 2.67 ± 0.045 and 2.91 ± 0.034.
In the case of HSKRELDSGDDQPQSSE [BRR2], the protein stability index reads like this: (doa10∆) 3.33 ± 0.073; (pdr5∆) 3.38 ± 0.069; (san1∆) 3.18 ± 0.057; (ubr1∆) 3.19 ± 0.051.
Regarding ASMLGLFVFTEGWPKFQ [QCR10], the protein stability index by setting is: (doa10∆) 1.79 ± 0.1; (pdr5∆) 1.96 ± 0.099; (ubr1∆) 2.82 ± 0.2.
As for ADGPTMREITETIAEAK [RPO21], the protein stability index by setting is: (doa10∆) 3.46 ± 0.074; (pdr5∆) 3.45 ± 0.055; (san1∆) 3.39 ± 0.026; (ubr1∆) 3.39 ± 0.041.
On the same counts, the results for FRVQSQSNYGIYSSDAQ [NUT1] are 2.03 ± 0.053, 2.51 ± 0.059, 1.8 ± 0.074 and 2.42 ± 0.1.
As to SSEFVSQDTKVICSVTG [RRP46], the protein stability index (doa10∆) amounted to 2.67 ± 0.054, the protein stability index (pdr5∆) was determined as 2.37 ± 0.056, the protein stability index (san1∆) was determined as 2.43 ± 0.076 and the protein stability index (ubr1∆) was 2.58 ± 0.059.
Take EILVTELTAQGYDPALL [RPN2]: the protein stability index was 2.8 ± 0.27 (doa10∆), 3.36 ± 0.15 (pdr5∆) and 3.28 ± 0.1 (ubr1∆).
With AIRRDARYNWICNPVHK [RPL15B], the protein stability index was 3.03 ± 0.16 (doa10∆), 3.38 ± 0.13 (pdr5∆), 3.37 ± 0.13 (san1∆) and 3.21 ± 0.081 (ubr1∆).
On the same counts, the results for QYSLERNSPFWWTNSHH [PRP8] are 2.56 ± 0.078, 2.79 ± 0.065, 2.4 ± 0.057 and 2.69 ± 0.052.
Consider GSCTRQLAGKSGEDTNV [YOR098C/NUP1], for which the protein stability index (doa10∆) stood at 3.38 ± 0.2, the protein stability index (pdr5∆) came out at 3.51 ± 0.15, the protein stability index (san1∆) is 3.34 ± 0.12 and the protein stability index (ubr1∆) amounted to 3.17 ± 0.082.
On the same counts, the results for HRDAYSGGSVNLYHVTE [PRE2] are 2.81 ± 0.11, 3.32 ± 0.086, 3 ± 0.07 and 3.03 ± 0.073.
On the same counts, the results for LPTRGTLESLENLVVAD [COR1] are 2.83 ± 0.059, 3.04 ± 0.053, 2.84 ± 0.057 and 2.89 ± 0.042.
On the same counts, the results for IETEFLLFTVKLKGLMK [IRR1] are 3.12 ± 0.14, 3.06 ± 0.22, 2.98 ± 0.12 and 3.28 ± 0.12.
With KDALSNSILSVRDPWSI [SRB2], the protein stability index (doa10∆) worked out at 3.27 ± 0.07, the protein stability index (pdr5∆) stood at 3.41 ± 0.087, the protein stability index (san1∆) turned out to be 3.1 ± 0.06 and the protein stability index (ubr1∆) turned out to be 3.36 ± 0.093.
Regarding NGKDNNNESNKNNNGDE [MED2], the protein stability index by setting is: (doa10∆) 3.12 ± 0.053; (pdr5∆) 3.17 ± 0.042; (san1∆) 3.23 ± 0.034; (ubr1∆) 3.15 ± 0.035.
As for NAKDKERLQLLEDVVGA [SMC3], the protein stability index runs as follows: (doa10∆) 3.32 ± 0.19; (pdr5∆) 3.38 ± 0.13; (san1∆) 3.01 ± 0.071; (ubr1∆) 3.21 ± 0.11.
Take ILYEIRALYTPFLLMEL [YDL116W/NUP84]: the protein stability index runs as follows: (doa10∆) 2.66 ± 0.081; (pdr5∆) 2.93 ± 0.064; (san1∆) 2.79 ± 0.066; (ubr1∆) 3.02 ± 0.062.
As to LQLASLQQKQRDLILKK [SMC3], the protein stability index came to 2.49 ± 0.14 (doa10∆), 2.46 ± 0.16 (pdr5∆), 3.1 ± 0.097 (san1∆) and 2.68 ± 0.13 (ubr1∆).
On the same counts, the results for KKLKPIVAKYDPPIIIF [PRP28] are 2.94 ± 0.069, 2.59 ± 0.075, 2.73 ± 0.086 and 2.37 ± 0.052.
On the same counts, the results for KPQRTNTLRMKHGTYDK [RPB2] are 2.74 ± 0.081, 2.85 ± 0.061, 2.84 ± 0.062 and 2.88 ± 0.044.
On the same counts, the results for GAKFENIVHNFKERQMM [AAR2] are 3.32 ± 0.081, 2.71 ± 0.096, 2.76 ± 0.089 and 3.04 ± 0.11.
